Test: yeast display, Sf9 membrane polyspecificity reagent, FACS + sequencing; frameworks hold sequencing errors
Outline: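 Nanobodies came from a synthetic yeast display library in Saccharomyces cerevisiae BJ5465, induced with galactose for 36–48 hours and stained for 1 hour at 4 °C with 10% biotinylated, detergent-solubilized Sf9 membrane reagent. Cells were enriched on streptavidin microbeads and then FACS-sorted, with low and high (top ~1%) gates set on anti-HA fluorescence for expression and streptavidin fluorescence for reagent binding. Each polyreactivity label reflects the gate a clone came from. Genes were amplified by colony PCR, sequenced by MiSeq 2 × 250 and filtered by CDR length.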

| Sequence | polyreactivity (PSR sort gate) |
| --- | --- |
| QVQLVESGGGLVQAGGSLRLSCAASGRTFVPYAMGWYRQAPGKERELVAAITWSGGRTRYADSVKGRFTISRDNAKNTVFLQMNSLKPEDTAVYYCARYYWLYSSSYDYWGQGTQVTVSS | high polyreactivity |
| QVQLVESGGGLVQAGGSLRLSCAASGSTFSDNDMGWYRQAPGKERELVATIDDDGSTYYADSVKGRFTISRDNAKNTVYLQMNSLKPEDTAVYYCAAEWYGGYPFGYWGQGTQVTVSS | low polyreactivity |
| QFQLVESGGGLVQAGGSLRLSCAASGSIFGGYAMGWYRQAPGKEREFVAAITRSGVSTYYADSVKGRFTISRDNEKNTVYLQMNSLKPEDTAVYYCAADQTAWRLRVYLRQYRYEYWGQGTQVTVSS | high polyreactivity |
| QVQLVESGGGLVQAGGSLRLSCAASGIIFKRNAMGWYRQAPGKERELVAAITYRGTSTYYADSVKGRFTISRDNAKNTVYLQMNSLKPEDTAVYYCNAVGRSSGSAFNYWGQGTQVTVSS | high polyreactivity |
| QVQLVESGGGLVQAGGSLRLSCAASGRIIYGYAMGWYRQAHGKERELVASITATYYADSVKGRFTISLDNSKNTVYLQMNSLIPEDTAVYYCNAYLSPKHPLSRPDPTFEGGYRGQGTQVTVSS | low polyreactivity |
| QVQLVESGGGLLQAGGSLRLSCAASGRTFNYYAMGWYRQAPWKESELVADIRGRGGSTYYADSVKGRFTISRDNAKITVYLQMNSLKPEDKAVYYCARRSPYPYSIYYYWGQGTQVTVSS | high polyreactivity |
| QVQLVESGGGLVQAGGSLRLSCAASGSTFYPYAMGWYRQAPGKERELVAAISSGGSTSYADSVKGRFTISRDNAKNTVYLQMNSLKPEDTAVYYCNASSPGAVPVYDYDYWGQGTQVTVSS | low polyreactivity |
| QVQLVESGGGLVQAGGSLRLSCAASGSTFANYAMGWYRQAPGKERELVAAISRGGNTYYADSVKVRFTISRDNAKNTVYLQMNSLKPEDTAVYYCAKYTYYSRPGDSDSDYWGQGTQVTVSS | high polyreactivity |
| QVQLVETGGGLVQAGGSLRLSCAASGFIFGYNAMGWYRQAPGKERELVATISWSGGSTYYADSVKGRFTISRDNAKNTVYLQMNSLKPEDSAVYYCAAEGWERLGWVSWVTVDYWGQGTQVTVSS | low polyreactivity |
| QVQLVESGGGLVQAGGSLRLSCAASGSIFSTNGMGWYRQAPGKERELVAAISTGGRTYYADSVKGRFTISRDNAKNTVYLQMNSLKPEDTAVYYCAKRFGYRSTQILDYWGQGTQVTVSS | low polyreactivity |
| QVQLVETGGGLVQAGGSLRLSCAASGRIFYLYAMGWYRQAPGKEWELVAAISSSGGSTYYADSVKGRFTISRDNAKTTVYLQMNSLKPEDTAVYYCNARRRTVPYRYDYWGQGTQVTVSS | high polyreactivity |
| QVQLVESGGGLVQAGGSLRLSCAASGRTFGINAMGWYRQAPGKETELVAVISFGDGGTYYADSVKGRFTISRDNAKNTVYLQMNSLTPEDTAVYYCATDYQSTSVWGGHFVINPYDYWGQGTQVTVSS | low polyreactivity |
| QVQLVESGGGLVQAGGSLRLSCAASGFTFRGNAMGWYRQAPGKERELVAAISYIGGTTYYADSVKGRFTISRDNAKNTVYLQMNSLKPEDTAVYYCAADLYRSILKPDYDYWGQGTQVTVSS | high polyreactivity |
| QVQLVESGGGLVQAGGSLRLSCAASGRIFKRYTLGWYRPAPAKERELVAAITKRADRTNYADSVKGRFTISRDNAKNTVYLQMNSLKPEDTAVYDCNAEGQNDHPSNGYISYKYDYWGQGTQVTVSS | low polyreactivity |
| QVQLVESGGGLVQAGGSLRLSCAASGIIFYLNAMGWYRQAPGKERELVAAISSSGGRTNYADSVKGRFTISRDNAKNSVYLQMNSLKPEDTAVYFCAAVITFYRYPPGETYYYWGQGTQVTVSS | high polyreactivity |
| QVQLVESGGGLVQAGGSLRLSCAASGSIFRDNAMGWYRQAPGKERELVASIRSSGGRTYYADSVKGRFTISRDNAKNTVYLQMNSLKPEDTAVYYCARRWYPVTPYARMYYWGQGTQVTVSS | low polyreactivity |
| QVQLVESGGGLVQAGGRLRLSCAASGRIFVHNAMGWYRQAPGKERELVAAISQNGGRTYYADSVKGRFTISRDNAKNTVYLQLNSLKPEDTAVYYCAAGQARAGLIGGYWGQGTQVTVSS | high polyreactivity |
| QVQLVESGGGLVQAGGSLRLSWAASGRTLWYYTMGWYRQAPGKERELLAGITVSGGSTYYADSVKGRFTISRDNAKNTVYLQMNSLKPEDTAVYYCADGYYSTWKQASRYRYYYWGQGTQVTVSS | high polyreactivity |
| QVQLVESGGGLVQAGGSLRLSCAASGRTFEQYAMGWYRQARGKERELVAAISGSGGSTFYADSVKGRFTISRDNAKNTVYLQMNSLKPEDTAVYYCNAPGDGYLYDHTYDYWGQGTQVTVSS | low polyreactivity |
| QVQLVESGGGLVQAGGSLRLSCAASGSTFYQYDMGWSRQAPGKERELVATISWSATSTYYADSVKGRFTISRDNAKNTVYLQMNSLKPEDTAVYYCNADLGDVYGWLHYDYWGQGTQVTVSS | low polyreactivity |
| QVQLVESGGGLVQAGGSLLLSCAASGSTFTQYAMGWYRQAPGKERELVAAINSRGDSTYYADSVKGRFTISRDNAKNTVYLQMNSLKPEDTAVYYCAKDPFPWALFDYWGQGTQVTVSS | low polyreactivity |
| QVQLVESGGGLVQAGGSLRLSCAASGLTFGLNAMGWYRQAPGKEREVVAAITWSGGSTYYADSVKGRFTISRDNAKNTVYLQMNSLKPEDTAVYYCATDNWSVNGGYNYWGQGTHVTVSS | low polyreactivity |

| Sequence | polyreactivity (PSR sort gate) |
| --- | --- |
| QVQGVESGGGLVQAGGSLRLSCAASGLTFKENVMGWYRKAPGKERELVAAISTGASTYYADSVKGRFTISRDNANNTVYLQMNSLKPEDTAVYYCAAERWAQGYTYEYWGQGTQVTVSS | high polyreactivity |
| QVQLVESGGGLVQAGGSLRLRCAASGSTFVYNGMGWYRQAPGKERELVATISSTGSTNYADSVKGRFTISRDNAKNTVFLQMNSLKPEDTAVYYCATEYITYLAYDYWGQGTQVTVSS | low polyreactivity |
| QVQLVESGGGLVQAGGSLRLICPASGSIFYYYAMGWYRQAPGKERELVAAISYSDDDTYYADSVKGRFTISRDNAKNTVYLQMNSLKPEDTAVYYCAAEFTIAWSYTMDYWVQGTQVTVSS | high polyreactivity |
| QVQLVESGGGLVQAGGSLRLSCAASGFTFVKNVMGWYRQAPGKERELVADITRRGGTTYYADSVKGRFTISRDNAKNTVYLQMNSLKPEDTAVYYCATEYWYGIYGYDYWGQGTQVTVSS | high polyreactivity |
| QVQLVESGGGLVQAGGSLRLSCAASGSIFSHYAMGWYRQAPGKERELVARITWGGGSTYADCVKGRFTISRDNAKNTVYLQMKSLKPEDTAVYYCAAVPVGYDSDWGYYYWGQGTQVTVSS | low polyreactivity |
| QVHLVESGGGLVQAGGSLRLSCAASGYTFKRNAMGWYRQAPGKERELVAAINIRGSSTYYADSVKGRFTISRDNAKNTVYLQMNSLKPEDTAVYYCNAVPRYGYYWGQGTQVTVSS | high polyreactivity |
| QVQLVESGGGLVQAGGSLRLSCAAYGSIFSWNAMGWYIQAPRKERELVAGITWSGGGTSYADSVKGRFTISRDNAKNTVYLQMNSLKPEDTAVYYCAKEWIFEFNYWGQGTQVTVSS | low polyreactivity |
| QVQLVESRGGLVQAGGSLRLSCAASGRIFSKYAMGWYRQAPGKERELVAGITIAGRTKYADSVKGRFTISRDNAKNTVYLQMNSQKPEDTAVYYCAARAQATGGYGYWGQGTQVTVSS | high polyreactivity |
| QVQLVESGGGLVQAGGSLRLSCAASGLTFRVYAMGWYRQEPGKERELVASISRTGSTTYADSVKGRFTISRDNAKNTVYLQMNSLKPEDTAVYYCNARYYVLLWDSLAREYWGQGTQVTVSS | high polyreactivity |
| QVQLVESGGGLVQAGGSLRLSCAASGFTFSTYAMGWYRQAPGKERELVAAITRSGGSTYYADSVKGRFTISRDNAKNTVYLQMNSLKPEDTAVYYCATDASFYDPDLYPYGYDYWGQGTQVTVSS | high polyreactivity |
| QVQLVESGGGLVQAGGSLRLSCAASGRTFPIYAMGWYRQSPGKERELVAAITYSGGSTYYADSVKGRFTISRDNANNKVYLKMNSLKPEDTSVYYCAVDGTKPYWHQRYDYWGQGTQVTVSS | low polyreactivity |
| QVQLVESGGGLVQAGGSLRLSCAASGSTFRYYAMGWYREAPGKEREFVAAISLRAGSTYYADSVKGRFTISRDNAKNTVYLQMNSLKPEDTAVYYCAARRASYGTRRYDYWGQGTQVTVSS | high polyreactivity |
| QVQLVESGGGLVQAGGSLRLSCAASGRTFAQYAMGWYRQAPGKERELVAAISRSGGSTFYADSVKGRFTISRDNAKNTVYLQMNSLKPEDTAVYYCAAYNRQASLDYWGQGTQVTVSS | high polyreactivity |
| QVQLVESGGGLVQAGGSLRLSCAASGRTFSIYAMGWYRQAPGKERELVAAISRGVTTYADSVKGRFTISRDNAKNTVYLQMNSLKPEDTAVYYCNARTVVYVRGGYWGQGTQVTVSS | low polyreactivity |
| QVQLVESGGGLVQAGGSLRLSCAASGIIFDSYAMGWYRQAPGKERELVAAITSDSGRTYYADSVKGRFTISRDNAKKTVYLQMNSLKPEYTAVYYFAKRWDGPYDYWGQGTQVTVSS | low polyreactivity |
| QVQLVESGGGLVQSGGSLRLSCAASGRIFKLYAMGWYRQAPGKERELVAAITRTGTSTYYADSVKGRFTISRDNAKNTVYLQMNSLKPEDTAVYYCNKTTLLTVEYDYWGQGTQVTVSS | low polyreactivity |
| QVQLVESGGGLVQAGGSLRLSCAASGSTFGSYAMGWYRQAPGKERELVAAITASGGSTYYADSVKGRFTISRDNGKNTVYLQMKSLKPEDTAVYYCAADTTYIPLSIEYDYWGQGTQVTVSS | low polyreactivity |
| QVQLVESGGRLVQAGGSLRLSCAASGRIFTGYAMGWYRQAPGKERELVAAISSRGGSTYYADYVKVRFTISRDNAKNTVYLQMNSLKPEDTAVYYCNAYQWRHRYTMYYWGQGTQVTVSS | high polyreactivity |
| QDQLVESGGGLVQAGGSLRLSCAASGSTFGYYAMGWYRQAPGKERELVAAITWNGGSTYADSVKGRFTISRDNAKNTVYLQMNSLKPEDTAVYYCAALVHRRVQYDYWGQGTQVTVSS | high polyreactivity |
| QVQLVESGGGLVQAGGSLRLSCAASGIIFYSYAMGWYRQAPGKERELVATISFSGDNTYYADSVKGRFTISRDNAKNTVYLQMNSLKPEDTAVYYCAAASTYGGYYYSVSFEYWGQGTQVTVSS | low polyreactivity |
| QVQLVESGGGLVQAGGSLRLSCAASGSIFVGYAMGWYRQAPGKERELVAAISRSGGRTYYADSVKGRFTISRDNAKNTVYLQMISLKPEDTAVYYCARQRYEYRTTYYYWGQGTQVTVSS | high polyreactivity |

From the nanobody polyreactivity screen of Harvey et al. (2022)
